Results from paper PMC9352680, “A comprehensive thermodynamic model for RNA binding by the Saccharomyces cerevisiae Pumilio protein PUF4”.
Changes are numbered by the printed parent chain. Names may count otherwise.

Molecular target: T1, PUF4 RNA-binding domain (Saccharomyces cerevisiae, UniProt P25339 537-888)
T1 sequence: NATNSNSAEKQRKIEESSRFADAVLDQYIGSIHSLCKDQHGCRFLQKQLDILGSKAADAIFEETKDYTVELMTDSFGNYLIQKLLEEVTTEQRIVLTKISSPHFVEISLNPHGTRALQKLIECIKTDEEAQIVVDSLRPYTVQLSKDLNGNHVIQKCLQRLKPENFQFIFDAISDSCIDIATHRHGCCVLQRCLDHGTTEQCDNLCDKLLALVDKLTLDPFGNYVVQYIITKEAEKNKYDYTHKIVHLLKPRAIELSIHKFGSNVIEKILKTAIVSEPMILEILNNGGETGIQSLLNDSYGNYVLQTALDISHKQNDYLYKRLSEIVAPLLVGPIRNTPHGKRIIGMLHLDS
Experiment: Mg; RNA-MaP; 20 mM Na-HEPES pH 7.4, 30 mM KOAc, 0.75 mM MgCl2, 0.1% Tween-20, 5% glycerol, 0.1 mg/mL BSA, 2 mM DTT; 25 C; 0.0125-409.6 nM protein
Conditions: tags: N-His6-TEV cleaved; C-SNAP kept, Cy3B-labelled; label: tethered on chip by stalled RNA polymerase

B1: Ie_S2_P5E.1_K5.1_C5.1_H5.1_A5.1_[+5TCC]_F5.1_T5.1 (ssRNA)
RNA: UUUGAUUAAUAUGAUAUCGUUCUUUCUUGUAUUCCUAUUAUUCUUUCUCGAUAUCAUAUUAAUCUUU
- Kd: 4.58 nM

B2: Ie_S2_P4E.1_K4.1_C4.1_H4.1_A4.1_[+5TTCC]_F4.1_T4.1 (ssRNA)
RNA: B1 RNA with C34U, U36C
- Kd: 47.7 nM

B3: Ie_S2_P4E.1_K4.1_C4.1_H4.1_A4.1_[+7CCCT]_F4.1_T4.1 (ssRNA)
RNA: B1 RNA with U33A, C34U, U36C, A37C
- Kd: 10.1 nM

B4: Ie_S2_P4E.1_K4.1_C4.1_H4.1_A4.1_[+6CCTC]_F4.1_T4.1 (ssRNA)
RNA: B1 RNA with U33A, A37C
- Kd: 14.8 nM

B5: Ie_S2_P4E.1_K4.1_C4.1_H4.1_A4.1_[+7CTCT]_F4.1_T4.1 (ssRNA)
RNA: B1 RNA with U33A, C34U, A37C
- Kd: 12.8 nM

B6: Ie_S2_P4E.1_K4.1_C4.1_H4.1_A4.1_F4.1_[+8CTCT]_T4.1 (ssRNA)
RNA: B1 RNA with U33A, C34U, C35U, U36C, A37U, U38C
- Kd: 4.74 nM

B7: Ie_S2_P4E.1_K4.1_C4.1_H4.1_A4.1_F4.1_[+8CCCT]_T4.1 (ssRNA)
RNA: B1 RNA with U33A, C34U, C35U, U36C, A37C, U38C
- Kd: 3.71 nM

B8: Ie_S2_P4E.1_K4.1_C4.1_H4.1_A4.1_[+6CTCT]_F4.1_T4.1 (ssRNA)
RNA: B1 RNA with U33A, C35U, U36C, A37U
- Kd: 6.3 nM

B9: Ie_S2_P5E.1_K5.1_C5.1_H5.1_A5.1_[+6CTC]_F5.1_T5.1 (ssRNA)
RNA: B1 RNA with C35U, U36C
- Kd: 18.7 nM

B10: Ie_S2_P4E.1_K4.1_C4.1_H4.1_[+4CCCT]_A4.1_F4.1_T4.1 (ssRNA)
RNA: B1 RNA with U32C, U33C, C35U
- Kd: 1.96 nM

B11: Ie_S2_P4E.1_K4.1_C4.1_H4.1_A4.1_F4.1_[+8CCTC]_T4.1 (ssRNA)
RNA: B1 RNA with U33A, C34U, C35U, U36C, A37C, U39C
- Kd: 4.56 nM

B12: Ie_S2_P4E.1_K4.1_C4.1_H4.1_A4.1_[+7CCTC]_F4.1_T4.1 (ssRNA)
RNA: B1 RNA with U33A, C34U, U36C, A37U, U38C
- Kd: 12.2 nM

B13: Ie_S2_P4E.1_K4.1_C4.1_H4.1_A4.1_[+6CCCT]_F4.1_T4.1 (ssRNA)
RNA: B1 RNA with U33A, U36C, A37U
- Kd: 26.5 nM

B14: Ie_S2_P4E.1_K4.1_C4.1_H4.1_[+4CTCTC]_A4.1_F4.1_T4.1 (ssRNA)
RNA: UUUGAUUAAUAUGAUAUCGUUCUUUCUUGUACUCUCUAUUAUUCUUUCUCGAUAUCAUAUUAAUCUUU
- Kd: 6.5 nM

B15: Ie_S2_P4E.1_K4.1_C4.1_H4.1_[+4CCCTT]_A4.1_F4.1_T4.1 (ssRNA)
RNA: B14 RNA with U33C, C36U
- Kd: 5.28 nM

B16: Ie_S2_P4E.1_K4.1_C4.1_H4.1_[+4CCTCT]_A4.1_F4.1_T4.1 (ssRNA)
RNA: B14 RNA with U33C, C34U, U35C, C36U
- Kd: 5.57 nM

B17: Ie_S2_P4E.1_K4.1_C4.1_H4.1_A4.1_[+5TCTCT]_F4.1_T4.1 (ssRNA)
RNA: B14 RNA with C32U
- Kd: 7.74 nM

B18: Ie_S2_P4E.1_K4.1_C4.1_H4.1_[+4TCTCT]_A4.1_F4.1_T4.1 (ssRNA)
RNA: B14 RNA with C32U, U33C, C34U, U35C, C36U
- Kd: 7.16 nM

B19: Ie_S2_P4E.1_K4.1_C4.1_H4.1_A4.1_[+6CTCTC]_F4.1_T4.1 (ssRNA)
RNA: B14 RNA with C32U, U33A, A38C
- Kd: 6.56 nM

B20: Ie_S2_P4E.1_K4.1_C4.1_H4.1_[+4TTCCT]_A4.1_F4.1_T4.1 (ssRNA)
RNA: B14 RNA with C32U, U35C, C36U
- Kd: 8 nM

B21: Ie_S2_P5E.1_K5.1_C5.1_H5.1_A5.1_[+5TTCC]_F5.1_T5.1 (ssRNA)
RNA: B14 RNA with C32U, C34U, U35C
- Kd: 7.16 nM

B22: Ie_S2_P5E.1_K5.1_C5.1_H5.1_A5.1_[+5CCCT]_F5.1_T5.1 (ssRNA)
RNA: B14 RNA with C32U, U33C, U35C, C36U
- Kd: 11.9 nM

B23: Ie_S2_P4E.1_K4.1_C4.1_H4.1_A4.1_[+7CTCTC]_F4.1_T4.1 (ssRNA)
RNA: B14 RNA with C32U, U33A, C34U, U35C, C36U, U37C, A38U, U39C
- Kd: 9 nM

B24: Ie_S2_P5E.1_K5.1_C5.1_H5.1_A5.1_[+5CCTC]_F5.1_T5.1 (ssRNA)
RNA: B14 RNA with C32U, U33C
- Kd: 10.2 nM

B25: Ie_S2_P4E.1_K4.1_C4.1_H4.1_A4.1_[+6CCCTT]_F4.1_T4.1 (ssRNA)
RNA: B14 RNA with C32U, U33A, U35C, A38U
- Kd: 20.8 nM

B26: Ie_S2_P4E.1_K4.1_C4.1_H4.1_A4.1_[+5CC]_F4.1_T4.1 (ssRNA)
RNA: UUUGAUUAAUAUGAUAUCGUUCUUUCUUGUAUCCAUUAUUCUUUCUCGAUAUCAUAUUAAUCUUU
- Kd: 20.2 nM

B27: Ie_S2_P4E.1_K4.1_C4.1_H4.1_A4.1_F4.1_[+8CT]_T4.1 (ssRNA)
RNA: B26 RNA with C33A, C34U, A35U, U36C
- Kd: 3.57 nM

B28: Ie_S2_P5E.1_K5.1_C5.1_H5.1_A5.1_[+6C]_F5.1_T5.1 (ssRNA)
RNA: B26 RNA with C33U
- Kd: 25.6 nM

B29: Ie_S2_P4E.1_K4.1_C4.1_H4.1_A4.1_F4.1_[+8CC]_T4.1 (ssRNA)
RNA: B26 RNA with C33A, C34U, A35U, U36C, U37C
- Kd: 5.04 nM

B30: Ie_S2_P4E.1_K4.1_C4.1_H4.1_A4.1_[+6CT]_F4.1_T4.1 (ssRNA)
RNA: B26 RNA with C33A, A35U
- Kd: 3.75 nM

B31: Ie_S2_P4E.1_K4.1_C4.1_H4.1_A4.1_[+7CC]_F4.1_T4.1 (ssRNA)
RNA: B26 RNA with C33A, C34U, A35C, U36C
- Kd: 11.7 nM

B32: Ie_S2_P4E.1_K4.1_C4.1_H4.1_A4.1_F4.1_[+8TC]_T4.1 (ssRNA)
RNA: B26 RNA with C33A, C34U, A35U, U37C
- Kd: 6.93 nM

B33: Ie_S2_P4E.1_K4.1_C4.1_H4.1_A4.1_[+7TT]_F4.1_T4.1 (ssRNA)
RNA: B26 RNA with C33A, C34U, A35U
- Kd: 2.3 nM

B34: Ie_S2_P4E.1_K4.1_C4.1_H4.1_A4.1_[+6TC]_F4.1_T4.1 (ssRNA)
RNA: B26 RNA with C33A, C34U, A35C
- Kd: 4.55 nM

B35: Ib_S2_P3E.1_K3.1_C3.1_H3.1_A3.1_[A6T]_F3.1_[A8C]_T3.1 (ssRNA)
RNA: UUUGAUUAAUAUGAUAUCGUUCUUUCUUGUAUUUCUUCUUUCUCGAUAUCAUAUUAAUCUUU
- Kd: 29.3 nM

B36: Ib_S2_P3E.1_K3.1_C3.1_H3.1_A3.1_[A6T]_F3.1_[A8T]_T3.1 (ssRNA)
RNA: B35 RNA with C35U
- Kd: 10.5 nM

B37: Ib_S2_P3E.1_K3.1_C3.1_H3.1_A3.1_[A6G]_F3.1_[A8T]_T3.1 (ssRNA)
RNA: B35 RNA with U33G, C35U
- Kd: 22.5 nM

B38: Ic_S2_P3E.1_K3.1_C3.1_H3.1_A3.1_[A6C]_F3.1_[A8T]_T3.1 (ssRNA)
RNA: B35 RNA with U33C, C35U
- Kd: 9.3 nM

B39: Ie_S2_P4E.1_K4.1_C4.1_H4.1_A4.1_F4.1_[+8C]_T4.1 (ssRNA)
RNA: UUUGAUUAAUAUGAUAUCGUUCUUUCUUGUAUAUUCAUUCUUUCUCGAUAUCAUAUUAAUCUUU
- Kd: 6.81 nM

B40: Ie_S2_P4E.1_K4.1_C4.1_H4.1_A4.1_[+5CTC]_F4.1_T4.1 (ssRNA)
RNA: UUUGAUUAAUAUGAUAUCGUUCUUUCUUGUAUCUCAUUAUUCUUUCUCGAUAUCAUAUUAAUCUUU
- Kd: 26.1 nM

B41: Ie_S2_P4E.1_K4.1_C4.1_H4.1_A4.1_[+6TTT]_F4.1_T4.1 (ssRNA)
RNA: B40 RNA with C33A, C35U, A36U
- Kd: 3.88 nM

B42: Ie_S2_P4E.1_K4.1_C4.1_H4.1_A4.1_[+6CCT]_F4.1_T4.1 (ssRNA)
RNA: B40 RNA with C33A, U34C, A36U
- Kd: 12.7 nM

B43: Ie_S2_P4E.1_K4.1_C4.1_H4.1_A4.1_[+7CCT]_F4.1_T4.1 (ssRNA)
RNA: B40 RNA with C33A, A36C
- Kd: 10.6 nM

B44: Ie_S2_P4E.1_K4.1_C4.1_H4.1_A4.1_[+5TCC]_F4.1_T4.1 (ssRNA)
RNA: B40 RNA with C33U, U34C
- Kd: 46.4 nM

B45: Ie_S2_P4E.1_K4.1_C4.1_H4.1_A4.1_[+7CTC]_F4.1_T4.1 (ssRNA)
RNA: B40 RNA with C33A, A36U, U37C
- Kd: 8.21 nM

B46: Ie_S2_P4E.1_K4.1_C4.1_H4.1_A4.1_F4.1_[+8CTC]_T4.1 (ssRNA)
RNA: B40 RNA with C33A, C35U, A36C, U38C
- Kd: 5.23 nM

B47: Ie_S2_P4E.1_K4.1_C4.1_H4.1_A4.1_F4.1_[+8CCT]_T4.1 (ssRNA)
RNA: B40 RNA with C33A, C35U, A36C, U37C
- Kd: 3.9 nM

B48: Ie_S2_P4E.1_K4.1_C4.1_H4.1_A4.1_[+7CCC]_F4.1_T4.1 (ssRNA)
RNA: B40 RNA with C33A, A36C, U37C
- Kd: 13.5 nM

B49: Ie_S2_P4E.1_K4.1_C4.1_H4.1_A4.1_F4.1_[+8TCC]_T4.1 (ssRNA)
RNA: B40 RNA with C33A, C35U, A36U, U37C, U38C
- Kd: 3.54 nM

B50: Ie_S2_P4E.1_K4.1_C4.1_H4.1_A4.1_F4.1_[+8CTT]_T4.1 (ssRNA)
RNA: B40 RNA with C33A, C35U, A36C
- Kd: 4.6 nM

B51: Ie_S2_P4E.1_K4.1_C4.1_H4.1_A4.1_[+5TTC]_F4.1_T4.1 (ssRNA)
RNA: B40 RNA with C33U
- Kd: 29.9 nM
